This note sets out measurements from paper PMC11957791.

This test deals with SBW25 RimK (P. fluorescens SBW25) (UniProt C3KE61).
Sequence of UniProt C3KE61 (C3KE61 whole entry): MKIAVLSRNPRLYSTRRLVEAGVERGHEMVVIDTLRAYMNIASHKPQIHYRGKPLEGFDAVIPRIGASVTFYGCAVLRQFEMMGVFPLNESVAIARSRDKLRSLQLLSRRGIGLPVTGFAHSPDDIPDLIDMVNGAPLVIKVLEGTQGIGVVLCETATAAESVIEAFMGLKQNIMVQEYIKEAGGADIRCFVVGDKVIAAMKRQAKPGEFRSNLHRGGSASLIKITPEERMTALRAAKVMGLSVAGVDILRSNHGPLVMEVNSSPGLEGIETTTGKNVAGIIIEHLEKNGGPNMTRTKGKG

SBW25 RimB (enzyme) returned an ATPase specific activity of SBW25 RimK (3.8 μM) with RimB (6.0 μM), linked PK/LDH assay; RimK only 47 nmol/min/mg RimK of 196 nmol/min/mg.
